Measured values from the DeepSol protein solubility set.

Test: soluble on expression in E. coli; label from the status in PepcDB or PDB records

Sequence | soluble on expression in E. coli
MRVLYERCCGLDVHKKSITACVLTPEGKEIRTFGTMTDDLEELVEWLKQKQVTHVAMESTGVYWKPIYNLLEAEPIDVLVVNAQHIKAVPGRKTDVKDAEWIADLLRHGLLRGSYIPDRAQRELRELVRYRRSLIEERARELNRIQKVLEGANIKLASVVSDINGVSAQQILRALIEGTDDPAVLAQLAKGRLKQKIGELRRALKGIMGPHQRMMLAEQCRHIEYLDEAIARLSREIEERTRPFHEVLELMETIPGVGRQSAEQIIAEIGTDMSRFPTAAHVASWAGMAPGNHESAGKRLSGRTRKGNKKLRACLVECARAAARTKNTYLSAKYHRIAKRRGANRASVAVGRTILEIIYSVLTRKAPYRELGADYWDQQREAAIVRQTVKRLEGLGYEVKLEKTSA | not soluble
MGSDKIHHHHHHMIVLGHRGYSAKYLENTLEAFMKAIEAGANGVELDVRLSKDGKVVVSHDEDLKRLFGLDVKIRDATVSELKELTDGKITTLKEVFENVSDDKIINIEIKEREAADAVLEISKKRKNLIFSSFDLDLLDEKFKGTKYGYLIDEENYGSIENFVERVEKERPYSLHVPYQAFELEYAVEVLRSFRKKGIVIFVWTLNDPEIYRKIRREIDGVITDEVELFVKLR | not soluble
MIKRPIHLSHDFLAEVIDKEAITLDATMGNGNDTVFLAKSSKKVYAFDIQEEAIAKTKAKLTEQGISNAELILDGHENLEQYVHTPLRAAIFNLGYLPSADKTVITKPHTTIKAIKNVLDILEVGGRLSLMVYYGHDGGKSEKDAVIAFVEQLPQNNFATMLYQPLNQVNTPPFLIMVEKLQSYENEV | not soluble
MGSETKHSAKVKIVTRESPPSAKEHMRPTKTQILVPPTQSLPNGKKPNFGKSTKQRREPRERTSKTGHEDDKATMVTVNIDAFLHDKAPKKKSCKYKKKKTRQYQDRAAASIDSKPHVAGHTAFAGASFTTDIPHEAALPKPSFV | soluble
MGSDKIHHHHHHMTVSQVSTGTGLGTRHVAFDWGGVFTVGTFDGRSTQNVAERSGVPVEKVRESYFRHIRQLEVGAWTLPQFWETVQQETGMTLPYADFEALYLGSIHDNAPMYTTLAALPRSVRVGLLSNNYPVVSEHLGRDPRFARFDALVFSNEIGHKKPAPEAFAALEQKMGLPAAQVAFVDDVQENIDAAGAFGFHGILYHHDAHERFEQELKEWLRG | not soluble
HISLNPDLANEDEVNSCDYWRHCAVDGFLCSCCGGTTTTCPPGSTPSPISWIGTCHNPHDGKDYLISYHDCCGKTACGRCQCNTQTRERPGYEFFLHNDVNWCMANENSTFHCTTSVLVGLAKN | soluble
MYEIKGHHHISMVTKNANENNHFYKNVLGLRRVKMTVNQDDPSMYHLFYGDKTGSPGTELSFFEIPLVGRTYRGTNAITRIGLLVPSEDSLHYWKERFEKFDVKHSEMTTYANRPALQFEDAEGLRLVLLVSNGEKVEHWETWEKSEVPAKHQIQGMGSVELTVRRLDKMASTLTEIFGYTEVSRNDQEAIFQSIKGEAFGEIVVKYLDGPTEKPGRGSIHHLAIRVKNDAELAYWEEQVKQRGFHSSGIIDRFYFKSLYFRESNGILFEIATDGPGFTVDGDVEHLGEKLDLPPFLEDQRAEIEANLAPIEEK | soluble
MGSDKIHHHHHHMETLYLKTLIVTAEKGSFSKAAAELCITQSAVSQRVKFLEERYGCELLDRSGPVMMLTAAGEAVVRKAQAILDIEKTLQDELKKFTGRQRLSICCTPSFGIAHMPKVLNRFMLRNADIVDLKFMFYSPEQAVKGLAEREFDIGIIEHCEDLDLADFHTATLPRDELVFVSAPSLGIPTPLVTIERLFEERLITRKDGCSSKKLLRLNLASIGKDLEGFRSTVVYDDLHLTVDTVLDGGGVAFVSSCLVNKYLENGQLKQHRVEGFCHSRQRTVALSRSKVQDRLVSDFLACLDTVFTDQCHRSSCPT | not soluble
MKNSDLYNGTLRTSFVPGSTLEAGIIFRATIPNGEFYEKEAGLSYYWLYILNGTVSFQRVENGEISNENKKYFPYGTSSAYEAKILLDDGDIYCYLNNRLVFHYTDENPLQGHQYGLKSEGSNLIVTEFATSSLEAPQHNEYLIFGHSYTDFWKTYKQDFHKYQDIYNIGIGGAITSDWCSEGYQKEVIAYQPKYGIYWNGINDINRNIAPKTIGDNVRRMAMEIKAAVPGFHLVLIGVCRCPIDSGRRSDIASTNNYYKQIASDLDYVTYIDTELMYCDSNGNEIANYFTDGLHPTHDAYIMCANAIMNTIK | soluble
VTGPTEESAVATVADWPEGLAAVLRGAADQARAAVVEFSGPEAVGDYLGVSYEDGNAATHRFIAHLPGYQGWQWAVVVASYSGADHATISEVVLVPGPTALLAPDWVPWEQRVRPGDLSPGDLLAPAKDDPRLVPGYTASGDAQVDETAAEIGLGRRWVMSAWGRAQSAQRWHDGDYGPGSAMARSTKRVCRDCGFFLPLAGSLGAMFGVCGNELSADGHVVDRQYGCGAHSDTTAPAGGSTPIYEPYDDGVLDIIEKPAES | soluble
GGVRPATNAYGGGSTTDNPNRFMYYPSHPVPGTQGGVVLAAYSWSDDAARWDSFDDAERYGYALENLQSVHGRRIEVFYTGAGQTQSWLRDPYACGEAAVYTPHQMTAFHLDVVRPEGPVYFAGEHVSLKHAWIEGAVETAVRAAIAVNEAPVGDTGVTAAAGRRGAAAATEPMREEALTS | soluble
MAHHHHHHMARRLQQAWRAFAARRERRYRAAAVAQCARKRLEREEVWQLVWQDQFTELDMLCMLERQYIEEQQHVKRVRLYKYLCDPNGATNDDCGTQTPGAFNADADLLKWATLYDE | not soluble
MSDRKPVRGRHQARKRAVALLFEAEVRGISAAEVVDTRAALAEAKPDIARLHPYTAAVARGVSEHAAHIDDLITAHLRGWTLDRLPAVDRAILRVSVWELLHAADVPEPVVVDEAVQLAKELSTDDSPGFVNGVLGQVMLVTPQLRAAAQAVRGGA | soluble
MVKIIENKLIDAEPLKDAVLIEGLPGIGHVGRVAAEHIVEEFNGEKVLELYCDDFPPQIVVKNDGTIEYMKNEFYLVKEPVPMVIVLGNTQALSPKGQYVLSEKIVDIAMKYGATKTYTLGGFGIGKISDELKVYVASTSKELSEQHKELGAEFRTDGGSIIGAAGLMLKFSKLKGIEGICLMGETPGYLVDPKSAGNVLEMLSKAIGFEIDMKKLDERAKEMEKFIEKVQMQEQGMQAPQHQDDLSYIG | not soluble
MAVTQSPRNKVAVTGGKVTLSCNQTNNHNNMYWYRQDTGHGLRLIHYSYGAGSTEKGDIPDGYKASRPSQENFSLILELATPSQTSVYFCASGDLGQTNERLFFGHGTKLSVLGSADDAKKDAAKKDGQVRQSPQSLTVWEGETAILNCSYENSAFDYFPWYQQFPGEGPALLISILSVSDKKEDGRFTIFFNKREKKLSLHIADSQPGDSATYFCAAIDTNAYKVIFGKGTHLHVLP | soluble
MSSTLPVINLMGPTASGKTALACELYERGHFELISVDSALIYKDMDIGTAKPTKEELALYPHHLIDIITPLEVYSAAQFVEDATQLIDQIHMKGKTPILVGGTMLYFKSLLEGLSTNLPSADAEVRAAIEKQAEQEGWQSVYDELARVDPVAGARFKVSDRQRIIRAIEVYRLTGQPITKLQAEQPKNVPYRYTFHNYALLPDRIELHKRIEQRLFKMWSIGFLNEVESLIKKYDLNDNLPSMRSVGYRQALDFLLKSDMSHNNRREMEDKALFATRQLAKRQYTWLRSLQETHYFKTYLTIKQAQEDLRNSYGLEHHHHHH | soluble
MGSDKIHHHHHHMTMDAATAVSDQGKQDLPAGDGATLSLKDRIARDLGQRILAGIYAQHAVLPTEAELCVIYGASRTALRDALLTLSAKGLIEARKRAGTRVRVSSEWNRLDAQVLEWMRDIEPDLDFVRGLIEARLVIEPAAAQLAAKMATSGDLAVIEAAYEAMRIAPEDDLAACLDADVRFHTAILRASRNPVFANLGNMLAAALSFSFRLTTSATANYQQTLSAHGDVLEAIRMRRVDDAHDQMKALIGIASNDLLAVARKGRHQQPVPTASADPI | not soluble
MPTKANTQRNWTIMVYLAGDNNLDSAGVVDLKEMKTVGTTDKIAVLAQFDRAGAKQATIRYCLKQGTPLAKDAVQSLGETNMGDPKVLEDFVTWGVANYPADHYLLVLWNHGAGWDDANLYQGDVFSGAAPPVSRKAQPVATRGATAGAKAIPLAQARAGIRRARRALFSTTVEAAIKQRGIAFDDQAQDFLDNIELKRVLTAIKKKLKRKIDIVGMDACLMSMAEVAYQMRDVADYSVGSEETEPGDGWPYDRILKALAAKPAMTPEELSKTIVAQYLASYKATENVTQSAMKLLALNPLATAVDGMAKALTGILGDTAARTALINARSQVQEYSRPYDDYCDLLDLCDLIGKGVASPAVKTACAKVKDAAAAAIVAAGYKGTGVDNSGGISIYFPKRKLSPLYKTLDFTKKTAWDEFLAAYLAGLGRLEHHHHHH | soluble
MAGEILVIGGGISGLTAAIEAAETGYDVILLEKNPYLGGRVSQLNKYFPKLCPPFCGLEILFKRMKSTPKLKYFTNAEVQEISGESGNFTVKVKLKPRYVNENCTACGACKEVCPIEAPDEYNFGLKKKKAIDLPNIMAMPFQYYIDDKYCNKCGECVSACKYNAIDLNEEEREMTLNVSSIIVATGWKPYDATKLDNLGYGKYKNVITNMEMERLASPNGPTGGVIQTMDGKPIETIAFVQCAGSRDENHLPYCSAICCLASLKQATYVREQYPDAKIYIFYIDIRAFGRYEDFFAKVKADEKIELIKGKVAKVEEVDGKLVVTAEDTLTGVKSKKEVDMVVLATGMQPAIEPIPGLELDEYGFVKPKPGIIPVGVAAMPMEVASANETATAAALKAIQLARRLEHHHHHH | soluble
SANPKLLGLELSEAEAIGADSARFEELLLQASKELQQAQTTRPESTQIQPQPGFCIKTNSSEGKVFINICHSPSIPPPADVTEEELLQMLEEDQAGFRIPMSLGEPHAELDAKGQGCTAYDVAVNSDFYRRMQNSDFLRELVITIAREGLEDKYNLQLNPEWRMMKNRPFMGSISQQNIRSEQRPRIQELGDLYTPAPGRAESGPEKPHLNLWLEAPDLLLAEIDLPKLDGALGLSLEIGENRLVMGGPQQLYHLDAYIPLQINSHESKAAFHRKRKQLMVAMPLLLVPS | soluble
MKRIPIKELIVEHPGKVLILDGGQGTELENRGININSPVWSAAPFTSESFWEPSSQERKVVEEMYRDFMIAGANILMTITYQANFQSISENTSIKTLAAYKRFLDKIVSFTREFIGEERYLIGSIGPWAAHVSCEYTGDYGPHPENIDYYGFFKPQLENFNQNRDIDLIGFETIPNFHELKAILSWDEDIISKPFYIGLSVDDNSLLRDGTTLEEISVHIKGLGNKINKNLLLMGVNCVSFNQSALILKMLHEHLPGMPLLVYPNSGEIYNPKEKTWHRPTNKLDDWETTVKKFVDNGARIIGGCCRTSPKDIAEIASAVDKYS | soluble
MGSDKIHHHHHHMKKIAIFCHNFFSNGTVKIALSQAEVLQEAGQDVHLFVFHKEGDFMPPENVTIHYLYDAGQKPSLQEQRQHLKAKVAEAEQSGKFSLFLSNSTDCDVVVSGCDFEPCYYFCHCALKQELLMELKRGPVHFWRRWKKAKALIGKKIITVSNGIADELRATSWLKPQSVQTIYNPFRLEEIRKKTQEVIAEIPNVPYMIHVGRVTRQKRHDILFKALRDMPTAPKLVLLCNRPKKARKLAKKYGVEHRIITPGFQHNPYAWIAKAELMLLSSDFEGLPTVVIESLACGTPVVSTDCPHGPNEILTGHLAQYLVPVRQPALLAQKALECLASPPALDNLEILKAVDSQYIAAQYINLAQ | not soluble
